Measurements taken from the supplement of paper PMC9170038.

System: MS2 coat protein
Assay: apparent KD of MS2 coat protein; designed switch direction (-1 OFF switch, 1 ON switch): -1; higher = weaker reporter binding
Summary of the method: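 Three titration conditions were used: no input, 200 uM small-molecule ligand, and an oligonucleotide input. In each, SNAP-549-labelled MS2 coat protein was raised from 0.7 or 1.5 nM, doubling, to 3 µM over designed RNA switches transcribed on Illumina chips by stalled E. coli RNA polymerase. Curve fits of normalised cluster fluorescence gave values whose per-design median over clusters is the apparent KD.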

[1] = Eterna round: R95, input ligand: microRNA oligo, concentration not stated
[2] = input ligand: microRNA oligo, concentration not stated
[3] = Eterna round: R95, input ligand: FMN 200 uM
[4] = Eterna round: R95, input ligand: none

Sequence | apparent KD of MS2 coat protein (input ligand: FMN 200 uM) [nM] | apparent KD of MS2 coat protein (input ligand: none) [nM] | apparent KD of MS2 coat protein [1] [nM] | apparent KD of MS2 coat protein [2] [nM] | apparent KD of MS2 coat protein [3] [nM] | apparent KD of MS2 coat protein [4] [nM]
AGCAGACGAGGAUAUAGAUUUAGAUACAUGAGGAUCACCCAUGUAUACAUGUAUUUAGAUUUAGAAGGCGUCUGCU [E5/14-A1] (Eterna round: R97, puzzle: Exclusion 5) | 1250 | 1340 |  |  |  | 
AACAACUCUGUGAGGAUAUGCAAUUGUUGAUCAAGGCAGAAGGCACAUGAGGAUCACCCAUGUUCCUACAAGGG [Reatanan] (puzzle: Brourd's mod of Exclusion 4) |  |  | 46.5 |  |  | 
GAUCUGUAAGGAUAUCGUGCAAGUUUCAAAAGAGGCUUGUGCGAGAAGGUACAUGAGGAUCACCCAUGUAGGUU [Omei Ex4 B15] (Eterna round: R97, puzzle: Exclusion 4) | 52.6 | 40.1 |  |  |  | 
UACAUGAGGAUCACCCAUGUUUUGUCGUGUAUGGUAUUUAUCUAGGAUAUCAAUUUGAUUAUUUAUGAGAAGGAGAAUAUUAAU [JMF's solution 65] (Eterna round: R96, puzzle: Exclusion NG 3) | 39.1 | 39.1 |  | 28.8 |  | 
CCCGGGCUUGUGAGGAUAUUGUGUGUGAAAGCGCGCGAGAAGGCACAUGAGGAUCACCCAUGUAAGGGCCCGGG [-34.6, -32.6 kcal, A 23%, 6bis-0] (Eterna round: R97, puzzle: Brourd's mod of Exclusion 4) | 19.3 | 85.9 |  |  |  | 
AAUGUCUGAGGAUAUCGAAUAGUGUACAUGAGGAUCACCCAUGUUUUUAUUAGUAUAUUACGAGAAGGCAGUGGAA [JR_E5_Sub086] (puzzle: Exclusion 5) |  |  | 16.1 |  |  | 
CUGGUCCGAGGAUAUAUGAUGUGAAACAUGAGGAUCACCCAUGUAAUAUUAUGGAAGUAAAUAGAAGGCGGACUAG [Mat - Exclusion 5 - JL mod - D34] (puzzle: Exclusion 5) |  |  | 49.5 |  | 28.6 | 37
GAUGUGGGUUUCCGGAGUAACAUGAGGAUCACCCAUGUAGAAGUUGGAGGGAUCAAGCUUUUUGGUCGUCAUAUGUG [JR_SV3TOV1_Sub052] (puzzle: Sensor v3, turn-off variant 1) |  |  | 246 |  | 288 | 422
UUAUACGGUGAGGAUAUCUUCACUAAAGUGUGAAGAGAAGGCGCUACAUGAGGAUCACCCAUGUCUAUGGGCAG [Ex-6 Malc#17] (Eterna round: R96, puzzle: Exclusion 6) |  |  |  | 331 |  | 
AAGAUACAUGAGGAUCACCCAUGUGAGGAUAUCAGCACGACCGUGAGGUCGAUAAGAAUGAGAAGGCACAAUGG [JL-ex1-4.51] (Eterna round: R97, puzzle: Exclusion 1) | 103 | 279 |  |  |  | 
CAUGCACAUGAGGAUCACCCAUGUCAGGAUAUCUAUCAUAGCAUCGAAAGAUGCGGGUAGAGAAGGGACAACCC [ChP Ext 10-04-2015 #10] (puzzle: Exclusion 1) |  |  | 15.5 |  |  | 
CUCCGGCGUGUAGGAUAUGGUUCCGUUUUGGUUCCAGAAGGACAUGAGGAUCACCCAUGUACAUGUCGUCGGUCGUCACCGGGC [salish99_ExNG1_r04_214] (Eterna round: R96, puzzle: Exclusion NG 1) | 104 | 29.8 |  | 22.2 |  | 
GCUCGACAUGAGGAUCACCCAUGUCAGGAUAUCUUUGGAGGAGGCUUGCCGAUGAUAGAGAGAAGGGACAGGUA [Eternabot (L2) Solution 70] (Eterna round: R97, puzzle: Exclusion 1) | 26.7 | 22.4 |  |  |  | 
CUUAGACAUGAGGAUCACCCAUGUGAGGAUAUGAAAUUAAUUAAUUAUUAAUUAUUAAUCAGAAGGCACAUAUG [Mat - Mod of Hyphema D38] (puzzle: Exclusion 1) |  |  | 43.6 |  | 79.8 | 41.3
UGGUAACAUGAGGAUCACCCAUGUCAGGAUAUCAGUAAGAAGAGAUUAGAUUAGAAUAUGAGAAGGGACUAUAG [Excluse me! 2 - Jieux - Exclusion 1] (puzzle: Exclusion 1) |  |  | 40.3 |  | 30.1 | 37.8
GAAAAGUGAGGAUAUCGACAUCUCGACAUGAGGAUCACCCAUGUUGUAGGUCGUGUCGAGCGAGAAGGCACAAUAA [EX5 B.9] (Eterna round: R97, puzzle: Exclusion 5) | 48.2 | 15 |  |  |  | 
AGUCCUGGAGUUAGGAUAUGGCGUAUCGCUGCGCUUCAGAAGGGACUUGAGGAUCACCCAAGUAGCCGUGAGGG [salish99_bmod_ex4_r4_008] (Eterna round: R97, puzzle: Brourd's mod of Exclusion 4) | 81.7 | 82.4 |  |  |  | 
GCUGGUCAAGGAUAUACAUGAGGAUCACCCAUGUGAUUAGCAGUCCUCGGACUGCAAUGUAGAAGGUGACCAGC [E3/2-C1] (Eterna round: R97, puzzle: Exclusion 3) | 1410 | 308 |  |  |  | 

Sequence | apparent KD of MS2 coat protein (input ligand: FMN 200 uM) [nM] | apparent KD of MS2 coat protein (input ligand: none) [nM] | apparent KD of MS2 coat protein [1] [nM] | apparent KD of MS2 coat protein [2] [nM] | apparent KD of MS2 coat protein [3] [nM] | apparent KD of MS2 coat protein [4] [nM]
AACGUCGAAGGAUAUACAUGAGGAUCACCCAUGUGGGACCUGUAAUCUCACCCAUCGUGUAGAAGGUUGAGGUA [Learberi] (Eterna round: R97, puzzle: Exclusion 3) | 29.9 | 35.6 |  |  |  | 
CUAGAUCUUCGGAUCUAGUACAUGAGGAUCACCCAUGUGACGAGUUGAUCCUCAUACAAGCUUUUUGCUCGUCUUAU [Sensor v3 - Turn-off variant 1 - 16] (puzzle: Sensor v3, turn-off variant 1) |  |  | 21.3 |  | 19.3 | 11.9
AAAAAACAAGGAUAUACAAAAAAAAAAAGUGAAAAAAAACCACAUGAGGAUCACCCAUGUAGAAGGUGUAAAAA [JR_Exclusion2_Sub002] (puzzle: Exclusion 2) |  |  | 37.1 |  | 21.9 | 51.1
AGCUAGUCAGGAUAUUCUAUUAAUUACAUGAGGAUCACCCAUGUGAAUGGACGAGGGUGUGAAGAAGGGACUAGCG [Omei Ex5 A17] (Eterna round: R97, puzzle: Exclusion 5) | 94.4 | 226 |  |  |  | 
ACCUCACAUGAGGAUCACCCAUGUCAGGAUAUCUAAUAUUGCAGCGUUCCCGACGCUGAGAGAAGGGACAUUAA [EX1 #30] (Eterna round: R97, puzzle: Exclusion 1) | 29.6 | 17.7 |  |  |  | 
UAAACAAGCUAAAGAUCCCACAUGAGGAUCACCCAUGUGCUCGUCUUGUAACGUACUGUGACGAAAGUCACGGUACG [JL TOV1 3.11] (Eterna round: R97, puzzle: Sensor, turn-off variant 1) | 19.1 | 22.8 |  |  |  | 
GCUAGAGCAGGAUAUUCAAAACCUCACAUGAGGAUCACCCAUGUGGCCGAAAGGCCGGGAGGAGAAGGGCUCUAGC [Mat - Exclusion 5 - Eli mod - D84] (puzzle: Exclusion 5) |  |  | 15.1 |  | 41.6 | 17.2
GCCAGAGCAGGAUAUUCAAUAAUUCACAUGAGGAUCACCCAUGUCCAGCGAAAGCUGGAGGGAGAAGGGCUCUGGC [Fiskers Ex 5 - 2] (puzzle: Exclusion 5) |  |  | 33.4 |  | 17.5 | 44.3
AGUACUAACACGACAGUGUUAGUACAAUAAGCUUGUGAAACAUGAGGAUCACCCAUGUCCUCAUAAGCUCGUCUUAU [salish99_TOv2_r3_031] (Eterna round: R96, puzzle: Sensor v3, turn-off variant 2) | 15.4 | 17.2 |  | 431 |  | 
UUCGCAAAAUUAGGUCCUAACAUGAGGAUCACCCAUGUUCUAGGUAAGUGCCUCCGCCCGCUAACUGUUCGUCUUGU [Eternabot (L1) Solution 36] (Eterna round: R97, puzzle: Sensor, turn-off variant 1) | 23.1 | 24.9 |  |  |  | 
UGAUUGUUUAACAGAUUAUACAUGAGGAUCACCCAUGUAGGUCCUACGUGCACAUUAUGCAGCUCGUCUUAUUCCCA [Sensor-V1 #72] (Eterna round: R97, puzzle: Sensor, turn-off variant 1) | 35.5 | 37.3 |  |  |  | 
ACAUCACAGCUAGGAUAUAGAUGACAUGAGGAUCACCCAUGUUAUCCCAUGUUGACGGAAACCGACUAGAAGGAGCUACAGAUG [Ex NG2 #7] (Eterna round: R96, puzzle: Exclusion NG 2) | 129 | 47.9 |  | 41.8 |  | 
AAAUCGGAGGAGGAUAUCGUACAGGAAACGGUGCGAGAAGGUUUCACAUGAGGAUCACCCAUGUCAAAUAGCGA [EX6 #58] (Eterna round: R97, puzzle: Exclusion 6) | 21 | 16.4 |  |  |  | 
AUUAUGUAAGGAUAUCUUACAUGUGACUUCGGUCACUGUUCAGAGAAGGUACAUGAGGAUCACCCAUGUAGAAC [Ex4-3: 46] (puzzle: Exclusion 4) |  |  | 18 |  |  | 
GACUAAAUUUUGUUUGGUUACAUGAGGAUCACCCAUGUUGGUCUAAGAACAUGUCUUUUGUACGCUUGUCUUAUAUA [JR_SV3TOV1_Sub068] (puzzle: Sensor v3, turn-off variant 1) |  |  | 45.8 |  | 76.6 | 96.3
AGCAUGCUAGGAUAUACGGGACAUUAGGGUUCGUCGUAUGGACAUGAGGAUCACCCAUGUAGAAGGAGCGUGCA [Mat - Exclusion 2 - Mod of Hyphema - D93] (puzzle: Exclusion 2) |  |  | 19.9 |  |  | 
UAUGUGUCAGGAUAUUAAUUAUAGGAGAAUGUGACGAUGAUUAAGAAGGGACAUGAGGAUCACCCAUGUUCAUC [JR_Ex4_Sub025] (Eterna round: R97, puzzle: Exclusion 4) | 21.3 | 19 |  |  |  | 
